Columns and labels:
ENTPD5 protein = target: T1, ENTPD5 protein (Homo sapiens (Human), UniProt O75356 25-428); assay: ELISA on coated ENTPD5 protein, anti-hIgG-HRP, OD450
T1 construct: also called CD39L4; ENTPDase 5
T1 sequence: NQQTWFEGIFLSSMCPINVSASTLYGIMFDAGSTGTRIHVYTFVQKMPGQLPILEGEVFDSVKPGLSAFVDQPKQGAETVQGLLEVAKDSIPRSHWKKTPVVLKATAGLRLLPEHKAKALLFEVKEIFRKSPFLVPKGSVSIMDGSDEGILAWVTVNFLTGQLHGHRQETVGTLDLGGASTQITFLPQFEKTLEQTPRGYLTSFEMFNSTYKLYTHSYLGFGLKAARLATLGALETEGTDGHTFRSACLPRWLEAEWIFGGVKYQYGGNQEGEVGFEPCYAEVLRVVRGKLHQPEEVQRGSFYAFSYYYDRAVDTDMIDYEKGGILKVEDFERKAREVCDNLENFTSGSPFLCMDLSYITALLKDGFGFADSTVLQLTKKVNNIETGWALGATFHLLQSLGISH
Method: (§1) Binding specificity of the purified humanized antibody hu23.H5L5 against ENTPDase family members was detected by ELISA assay. Briefly, ENTPD1 (i.e. CD39) and ENTPD 2/3/5/6 proteins were coated on 96-well ELISA plates at 4° C. overnight, next day the ELISA plates were washed and blocked using blocking buffer (1% BSA in PBS with 0.05% Tween20) 200 μL/well for 2 hours. Then hu23.H5L5 gradients were duplicated into the wells and stained with anti-hIgG-HRP. After plate washing, the plates were developed with TMB substrate and stopped by 2N HCl. The OD450 were recorded using plate reader and platted by Graphpad Prism.

[1] = target: T2, human CD39 (full length, on cells) (human, UniProt P49961 1-510); assay: FACS, MOLP-8 cells
T2 construct: Recombinant on CHOK1-hCD39 cells or natural on SK-MEL-28, SK-MEL-5 and MOLP-8 cells; the cell line is named under assay; also called hCD39; ENTPD1
T2 sequence: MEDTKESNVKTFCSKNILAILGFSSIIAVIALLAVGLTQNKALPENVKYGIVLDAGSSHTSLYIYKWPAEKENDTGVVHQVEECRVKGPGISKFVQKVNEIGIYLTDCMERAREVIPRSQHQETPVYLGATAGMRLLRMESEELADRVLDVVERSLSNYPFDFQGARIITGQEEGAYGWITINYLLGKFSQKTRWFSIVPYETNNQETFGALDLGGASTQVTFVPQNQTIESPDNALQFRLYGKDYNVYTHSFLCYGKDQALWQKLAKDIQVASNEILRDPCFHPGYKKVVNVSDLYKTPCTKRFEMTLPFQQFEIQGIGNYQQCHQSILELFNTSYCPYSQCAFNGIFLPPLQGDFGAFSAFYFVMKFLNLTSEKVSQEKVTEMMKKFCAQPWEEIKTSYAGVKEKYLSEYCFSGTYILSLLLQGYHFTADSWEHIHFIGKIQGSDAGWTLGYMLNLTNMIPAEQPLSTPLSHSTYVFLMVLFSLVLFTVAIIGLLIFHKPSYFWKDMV
In short: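 MOLP-8 cells expressing human CD39 were incubated 30 min at 4 °C with graded concentrations of anti-CD39 antibody. Binding was detected with a fluorescent anti-mouse or anti-human IgG secondary (30 min, 4 °C) and flow cytometry. EC50 is the antibody concentration reaching 50% of the signal.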

ENTPD2 protein = target: T3, ENTPD2 protein (Homo sapiens (Human), UniProt Q9Y5L3 29-462); assay: ELISA on coated ENTPD2 protein, anti-hIgG-HRP, OD450
T3 construct: also called CD39L1; ENTPDase 2
T3 sequence: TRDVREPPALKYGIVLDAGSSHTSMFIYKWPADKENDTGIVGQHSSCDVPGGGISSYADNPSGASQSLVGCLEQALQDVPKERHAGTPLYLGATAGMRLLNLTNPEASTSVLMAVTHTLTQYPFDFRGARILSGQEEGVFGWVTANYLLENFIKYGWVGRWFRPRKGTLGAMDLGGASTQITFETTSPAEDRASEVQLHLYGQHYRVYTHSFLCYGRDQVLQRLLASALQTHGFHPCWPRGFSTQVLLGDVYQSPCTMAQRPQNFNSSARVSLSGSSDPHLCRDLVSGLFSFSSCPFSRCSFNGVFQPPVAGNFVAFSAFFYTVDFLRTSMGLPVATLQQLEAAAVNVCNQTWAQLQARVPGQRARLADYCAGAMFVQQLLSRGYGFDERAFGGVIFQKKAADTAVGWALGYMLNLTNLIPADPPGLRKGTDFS
Method: as §1

ENTPD3 protein = target: T4, ENTPD3 protein (Homo sapiens (Human), UniProt O75355 44-485); assay: ELISA on coated ENTPD3 protein, anti-hIgG-HRP, OD450
T4 construct: also called CD39L3; ENTPDase 3
T4 sequence: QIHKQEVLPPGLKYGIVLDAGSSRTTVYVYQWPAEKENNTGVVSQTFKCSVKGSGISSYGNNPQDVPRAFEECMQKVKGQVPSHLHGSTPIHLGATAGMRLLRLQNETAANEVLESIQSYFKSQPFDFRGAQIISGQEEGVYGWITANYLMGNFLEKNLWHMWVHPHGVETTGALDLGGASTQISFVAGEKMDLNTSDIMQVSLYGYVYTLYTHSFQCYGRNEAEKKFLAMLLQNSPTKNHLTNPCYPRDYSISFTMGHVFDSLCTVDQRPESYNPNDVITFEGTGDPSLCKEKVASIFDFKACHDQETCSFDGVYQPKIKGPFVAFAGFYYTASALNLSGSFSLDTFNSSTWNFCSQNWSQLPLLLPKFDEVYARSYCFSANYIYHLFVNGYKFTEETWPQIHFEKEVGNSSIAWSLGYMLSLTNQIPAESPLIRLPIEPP
Method: as §1

binding result (ENTPD5 protein): no binding (tested: about 66 nM) | EC50 [1]: 0.177 nM | binding result (ENTPD2 protein): no binding (tested: about 66 nM) | binding result (ENTPD3 protein): no binding (tested: about 66 nM)
B1: hu23.H5L5 (antibody, V domains shown)
VH: QVQLVQSGAEVKKPGASVKVSCKASGYNLKDTFLHWVRQAPGQGLEWMGRIDPANGNIKYDPKFQGRVTITADTSANTAYMELISLRSEDTAVYYCANSPYYYGSGYRIFDVWGQGTTVTVSS
VL: QIVLTQSPATLSLSPGERATLSCSAFSSVNYMHWYQQKPGQAPRLLIYTTSNLASGIPTRFSGSGSGTSYTLTISSLEPEDFAVYYCQQRSTYPFTFGQGTKLEIK
notes: humanized c23

Reference: US20210388105A1 (ELPISCIENCE SUZHOU BIOPHARMA, published 2021)
